Where two headings read alike, the source gives them in different places.
T1: full length cyno SIRPα stably expressed on CHOK1 cells (cynomolgus monkey, UniProt A0A2K5VYQ9 31-507)
T1 construct: whole, on cells; also called CHOK1-cyno SIRPα-2A2 cells; CHOK1-cyno SIRPα
T1 sequence: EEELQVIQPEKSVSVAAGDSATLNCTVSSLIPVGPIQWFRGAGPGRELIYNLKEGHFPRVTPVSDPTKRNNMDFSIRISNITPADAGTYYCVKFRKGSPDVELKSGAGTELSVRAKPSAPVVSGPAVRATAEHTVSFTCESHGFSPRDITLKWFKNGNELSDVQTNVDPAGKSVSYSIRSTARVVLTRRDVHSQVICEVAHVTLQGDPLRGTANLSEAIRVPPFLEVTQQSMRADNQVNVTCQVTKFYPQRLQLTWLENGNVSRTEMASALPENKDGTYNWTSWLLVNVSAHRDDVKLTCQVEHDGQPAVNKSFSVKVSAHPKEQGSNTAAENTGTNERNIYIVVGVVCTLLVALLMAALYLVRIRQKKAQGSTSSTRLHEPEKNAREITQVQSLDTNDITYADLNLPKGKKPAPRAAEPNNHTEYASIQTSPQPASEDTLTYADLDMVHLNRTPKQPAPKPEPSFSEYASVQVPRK

T2: full length C57BL/6 mouse SIRPα stably expressed on CHOK1 cells (mouse (C57BL/6), UniProt P97797 32-513)
T2 construct: whole, on cells; also called CHOK1-C57BL/6 mouse SIRPα-2.22 cells
T2 sequence (looked up): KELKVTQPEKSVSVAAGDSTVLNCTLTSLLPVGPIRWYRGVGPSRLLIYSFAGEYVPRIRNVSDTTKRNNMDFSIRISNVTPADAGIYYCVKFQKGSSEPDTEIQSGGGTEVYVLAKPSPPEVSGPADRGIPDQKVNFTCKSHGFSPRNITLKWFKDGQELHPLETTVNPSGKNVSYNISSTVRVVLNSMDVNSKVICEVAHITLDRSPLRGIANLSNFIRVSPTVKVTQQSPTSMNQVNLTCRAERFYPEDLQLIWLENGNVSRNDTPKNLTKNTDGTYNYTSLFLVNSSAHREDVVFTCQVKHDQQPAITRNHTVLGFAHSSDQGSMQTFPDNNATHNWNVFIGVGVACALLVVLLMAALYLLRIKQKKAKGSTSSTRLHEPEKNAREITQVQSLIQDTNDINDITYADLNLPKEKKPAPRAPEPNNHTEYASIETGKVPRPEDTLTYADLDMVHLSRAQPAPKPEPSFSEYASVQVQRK


Tests used:
[1] = biological target: T1, full length cyno SIRPα stably expressed …; assay: FACS on CHOK1 cells
Procedure: Species cross reactivity of the purified hybridoma antibodies against human, cyno and mouse SIRPα was determined by FACS assay using CHOK1-human SIRPα v1-1B4 cells, CHOK1-cyno SIRPα-2A2 cells, and CHOK1-C57BL/6 mouse SIRPα-2.22 cells, which stably expressing SIRPα protein. Briefly the antibodies were incubated with 2×10⁵ target cells at 4° C. for 1 hour. After washing, fluorescence labeled anti-mouse or anti-human IgG 2nd antibody (Life Technologies) was added and incubated at 4° C. for 1 hour. Geometric median fluorescence intensity was detected and EC₅₀ was calculated. In particular, it is noted, in contrast to the other antibodies tested in the same experiment, 060 cannot bind with cyno SIRPα and 035 has cross reactivity against C57BL/6 mouse SIRPα.
The purified chimeric antibodies were applied for binding specificity analysis and species cross reactivity analysis (refer to methods described in Example 3.3 and 3.4). FIGS. 1A to 1D show binding specificity of anti-SIRPα chimeric antibodies against recombinant proteins of human SIRPα v1 ECD (A), human SIRPα v2 ECD (B), human SIRPβ ECD (C) and human SIRPγ ECD (D) as measured by ELISA analysis.

[2] = biological target: T3, chimeric SIRPα of B-hSIRPA mice (IgV domain of human SIRPα); IgC1/C2, transmembrane and intracellular domains … (human; mouse, UniProt P78324 31-149; P97797 151-513, limits assumed); assay: FACS on spleen cells of B-hSIRPA mice, anti-human IgG secondary antibody, gated on mCD11b/mF4/80 double positive monocytes
T3 construct: domain: IgV domain;domain: IgC1/C2, transmembrane and intracellular domains; whole, on cells (mCD11b+ mF4/80+ spleen monocytes); also called B-hSIRPA mice derived primary monocytes
T3 sequence (P78324 other isoform, or with tags, fused parts or gaps mutant limits assumed): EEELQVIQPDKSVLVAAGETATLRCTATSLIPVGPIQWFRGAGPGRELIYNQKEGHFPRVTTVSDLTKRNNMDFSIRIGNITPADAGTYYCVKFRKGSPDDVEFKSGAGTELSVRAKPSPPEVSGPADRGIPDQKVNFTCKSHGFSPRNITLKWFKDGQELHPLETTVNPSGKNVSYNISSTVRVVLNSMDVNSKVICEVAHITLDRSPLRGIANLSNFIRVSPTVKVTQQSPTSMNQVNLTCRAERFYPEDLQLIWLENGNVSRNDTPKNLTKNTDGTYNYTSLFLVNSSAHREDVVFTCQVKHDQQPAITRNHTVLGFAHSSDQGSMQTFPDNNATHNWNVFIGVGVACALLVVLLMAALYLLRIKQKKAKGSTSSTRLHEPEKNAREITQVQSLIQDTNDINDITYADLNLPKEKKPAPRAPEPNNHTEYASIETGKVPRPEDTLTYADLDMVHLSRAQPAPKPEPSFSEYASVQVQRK
Procedure: The humanized mice express a chimeric SIRPα, comprised of IgV domain of human SIRPα and IgC1/C2, transmembrane and intracellular domains of mouse SIRPα. Briefly spleen cells of B-hSIRPA mice were harvested and incubated with anti-SIRPα chimeric antibodies at 4° C. for 1 hour. After washing, fluorescence labeled anti-human IgG 2nd antibody (Life Technologies) was added and incubated at 4° C. for 1 hour. […] Anti-SIRPα positive staining population in mCD11b and mF4/80 double positive subset was calculated.

[3] = biological target: T4, biotin labeled soluble human SIRPα v1 ECD recombinant protein (human, UniProt P78324 31-373, biotin labeled); assay: competitive ELISA; competitor 032
T4 construct: extracellular domain
T4 sequence (P78324 31-373): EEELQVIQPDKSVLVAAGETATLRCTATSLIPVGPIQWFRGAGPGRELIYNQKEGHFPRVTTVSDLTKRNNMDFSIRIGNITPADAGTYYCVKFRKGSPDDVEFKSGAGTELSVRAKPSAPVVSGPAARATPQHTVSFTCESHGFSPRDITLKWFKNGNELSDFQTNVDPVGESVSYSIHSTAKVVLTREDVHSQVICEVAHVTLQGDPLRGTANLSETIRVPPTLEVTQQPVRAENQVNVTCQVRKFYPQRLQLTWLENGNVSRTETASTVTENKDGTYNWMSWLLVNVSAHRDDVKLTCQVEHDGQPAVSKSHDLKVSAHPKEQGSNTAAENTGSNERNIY
Procedure: (§1) Competitive ELISA assay was used for epitope binning of 9 functional antibodies. Briefly excessive competitor antibody and biotin labeled soluble human SIRPα v1 ECD recombinant protein were co-incubated with ELISA microplate coated antibody. After washing, HRP-SA was added and incubated at 37° C. for 1 hour. Then, […] of TMB solution (Biotechnology) was added. After incubation for 15 minutes at room temperature, the reaction was stopped by the addition of […] of 1N HCl. OD 450 nm was read. Competition ratio was calculated. The antibodies that can compete each other for binding to SIRPα have the similar binding epitope.

[4] = biological target: T4, biotin labeled soluble human SIRPα v1 …; assay: competitive ELISA; competitor 002
Procedure: as §1

[5] = biological target: T1, full length cyno SIRPα stably expressed …; assay: FACS on CHOK1 cells; remark: listed apart in the source
[6] = biological target: T4, biotin labeled soluble human SIRPα v1 …; assay: competitive ELISA; competitor KWAR23
Procedure: as §1

[7] = biological target: T2, full length C57BL/6 mouse SIRPα stably …; assay: FACS on CHOK1 cells

Row | MFI at 10 nM [1] | binding result [2] | Positive Staining Population (% in mCD11b, mF4/80 double positive subset) [2] | Binder | other results
1 | 23500 MFI | no binding |  | chimeric antibody 022c (antibody, V domains shown) VH: QIQLVQSGPELKKPGETVKISCKASGYTFTDYAMHWVKQAPGKGLKWMGWKNTETGESTYAEDFKGRFAFFLETSASTAYLQINNVKNEDTATYFCARGGYGSNYVMDYWGQGTSVIVSS VL: DIQMTQSSSSFSVSLGDRVTITCKASEDIYNRLAWYQQKPGNAPRLLISGATSLETGVPSRFSGSGSGKDYTLSITSLQTEDVATYYCQQYWNSPRTFGGGTKLEIK | 
2 | 27600 MFI |  |  | reference antibody 29-AM4-5 (antibody, V domains shown) VH: EVQLVESGGGLVQPGGSLRLSCAASGFNISYYFIHWVRQAPGKGLEWVASVYSSFGYTYYADSVKGRFTISADTSKNTAYLQMNSLRAEDTAVYYCARFTFPGLFDGFFGAYLGSLDYWGQGTLVTVSS VL: DIQMTQSPSSLSASVGDRVTITCRASQSVSSAVAWYQQKPGKAPKLLIYSASSLYSGVPSRFSGSRSGTDFTLTISSLQPEDFATYYCQQAVNWVGALVTFGQGTKVEIK | % Competition [3]: 97%; % Competition [4]: 94%; MFI at 10 nM [5]: 37900 MFI; % Competition [6]: 93%
3 | 12200 MFI | no binding | 0.14% | chimeric antibody 074c (antibody, V domains shown) VH: QVQLQQPRAELVKPGASVMLSCKASGYTFSSYWIHWVRQGPGQGLEWIGLIHPNSGNTDCSETFKNKATLTVDTSSSTAYMQLSSLASEDSAVYYCARDGASYDWFVHWGQGTLVTVSA VL: not shown | 
4 | 20500 MFI | no binding | 0.16% | chimeric antibody 050c (antibody, V domains shown) VH: QIQLVQSGPELKKPGETVKISCKASGYTFTHYSMHWVKQAPGKGLKWMGWINTETAEPTYVDDFKGRFAFSLEASASTAFFQINNLKNEDTATYFCARGGLRQGDYWGQGTTLTVSS VL: QIVLTQSPPIMSASPGEKVTLTCSATSSVSASYLYWFQQKPGSSPKLWIYSTSNLASGVPARFSGSGSGTSYSLTISNMEPADAASYFCHQWSSYPYTFGGGTKLEIK | 
5 | 24600 MFI |  | 91.3% | chimeric antibody 035c (antibody, V domains shown) VH: QIQLVQSGPELRKPGETVKISCKASGYSFTNYAMNWVKQAPGKVLKWMGFINTYTGEPTYADDFKGRFAFSLETSASTAYLQINNLKNEDTATYFCTRTRGYYDFDGGAFDYWGQGTSLTVSS VL: DIVMTQSQKFMSTSIGDRVSVTCKASQNVGTHLAWYQQKPGQSPKALIFSASYRYIGVPDRFTGSGSGTDFTLTITNVQSEDLAEYFCQQYNTYPLTFGAGTKLELK | MFI at 2 ug/ml [7]: 310 MFI; EC50 [5]: 0.42 nM
6 | 8060 MFI | no binding | 0.13% | chimeric antibody 055c (antibody, V domains shown) VH: EVKLVESEGGLVQPGDSMKLSCTASGFTFSDYFMTWIRQVPEKGLEWIANVNYDGRSTYYLDSLKSRFIISRDNANNILYLQMSSLKSEDTATYYCAREGSQTPLYAVDYWGQGTSVTVSS VL: DIVMTQSQKFMSTTVGDRVNITCKASQNVGTAVAWYQQKPGQSPKLLIYLASNRYTGVPDRFTGSGSGTDFTLTVSDMRSEDLADYFCQQYSIYPFTFGSGTKLEIK | 
7 |  |  | 86% | chimeric antibody 060c (antibody, V domains shown) VH: QVQLKESGPGLVAPSESLSITCTVSGFSLTNYDISWIRQSPGKGLEWLGVIWTGGDTNFNSAFMSRLSISKDKSKSQVFLKLNSLQTDDTAIYYCVRVQYFGGSYGPMDYWGQGISVTVSS VL: DIQMTQASSYLSVSLGGRVTITCEASDHINDWLAWYQQTPGNAPRLLISGATSLETGVPSRFSGSGSGKDYTLSITSLQTEDIATYYCQQYWNTPLTFGAGTRLELK | binding result [1]: no binding (tested: 10 nM)
8 | 24900 MFI |  | 91% | chimeric antibody 001c (antibody, V domains shown) VH: EVKLEESGGGLVQPGGSMKLSCVASGFTFRNYWMNWVRQSPERGLEWIAEISLKSNTYATHYAESVKGRFAISRDGSKSSFYLQMNDLRAEDTGIYYCTTFTKVVADWHLDVWGAGTTVTVSS VL: DVLMTQTPLSLPVSLGDQASISCRSSQNIVHSNGNTYLEWYLQKPGQSPKLLIYKVSNRFSGVPDRFSGSGSGTDFTLRISRVEAEDLGVYYCFQGSHVPFTFGSGTKLEIK | 
9 | 19000 MFI |  | 91.5% | chimeric antibody 032c (antibody, V domains shown) VH: EVRLEESGGGLVQPGGSMKLSCVVSGFTFRNYWMNWVRQSPERGLEWIAEITLKSNTYATHYAESVKGRFAISRDDSKSSFYLQMNDLRPEDTGIYYCTTFTKVVADWHLDVWGAGTTVTVSS VL: DVLMTQTPLSLPVNLGDQASISCRSSQNIVHSNGNTYLEWYLQKPGQSPKLLIYKVSNRFSGVPDRFSGSGSGTDFTLRISRVEAEDLGVYYCFQGSHVPFTFGSGTKLEIK | 
10 | 17100 MFI |  | 88.9% | chimeric antibody 002c (antibody, V domains shown) VH: EVKLEESGGGLVQPGGSMILSCVASGFTFRNYWMNWVRQSPERGLEWIAEITLKSNTYATHYAESVKGRFAISRDDSKSSFYLQMNDLRPEDTGIYYCTTFTKVVADWHLDVWGAGTTVTVSS VL: DVLMTQTPLSLPVSLGDQASISCRSSQNIVHSNGNTYLEWYLQKPGQSPKLLIYKISNRFSGVPDRFSGSGSGTDFTLRISRVEAEDLGVYYCFQGSHVPFTFGSGTKLEIQ | 

Source: patent US20210347908A1 (ELPISCIENCE SUZHOU BIOPHARMA, published 2021)
